Laboratory results taken from patent US20040106557A1 (LICENTIA, published 2004).
Ends that are not written are not given here.

B1: Prostate specific antigen (PSA), purified from human seminal fluid (enzyme)
chain: not shown
notes: mature; Mostly captured on wells by MAb 5E4 (IFMA) or on the chip by MAb H117 (SPR); in solution in enzyme assays; also called free PSA; active PSA
B2: GST-C-4 (peptide C-4 expressed as glutathione S-transferase fusion protein) (other)
chain: CVAYCIEHHCWTC
B3: phage-displayed peptide Z-10 (fUSE5 phage clone) (peptide)
chain: CVPYLGLWLC
modifications: cysteine pairing not given here; also: displayed on fUSE5 phage protein III with flanking residues
notes: isolated with 200 µM ZnCl2; not shown: fUSE5 phage protein III and flanking residues
B4: phage-displayed peptide Z-11 (fUSE5 phage clone) (peptide)
chain: CMFDPMYMWMTC
modifications: cysteine pairing not given here; also: displayed on fUSE5 phage protein III with flanking residues
notes: as for B3
B5: GST-B-2 (peptide B-2 expressed as glutathione S-transferase fusion protein) (other)
chain: CVFAHNYDYLVC
B6: GST-A-1 (peptide A-1 expressed as glutathione S-transferase fusion protein) (other)
chain: CVFTSDYAFC

Legend:
[1] = molecular target: B6; assay: competition IFMA: GST-peptide (167 nM) preincubated with PSA in solution, then binding to PSA captured by MAb 5E4
Procedure: (§1) Various amounts of GST-peptide or wild type GST were added to wells containing captured PSA in 200 μL of assay buffer and incubated for 1 h. To test the effect of Zn²⁺ on the binding between GST-peptide and PSA, various concentrations of Zn²⁺ (1-200 μM) were added to the buffer in the incubation step of GST-peptide and PSA. […] After incubation for 1 h the wells were washed and Eu³⁺-labeled anti GST antibody was added. After further incubation and washing the bound fluorescence was measured as described above. When assessing the binding of the GST-peptides to other proteinases, including chymotrypsin, cathepsin G, trypsin, and kallikrein, these proteinases were captured by their specific antibodies coated to the microtitration well. Recombinant hK2 was captured by MAb 5E4, which is known to bind hK2 (24). For assessing the binding of the GST-peptides with complexes of PSA, including PSA-ACT and PSA-α1-protease inhibitor (PSA-API) (28), the complexes were captured by antibodies against ACT and API, respectively. After capturing the various proteinases or PSA complexes, GST-peptide was added and binding was monitored as described above for the GST-peptide IFMA.
(§2) In this connection, we refer also to FIG. 3. GST-C-4 was preincubated with increasing concentrations of PSA in solution for 1 h. Then the samples of the mixtures were added to wells in which PSA had been captured by anti PSA MAb. The binding was measured by IFMA. Data represent mean values from duplicate wells ±SE. The corresponding values for the peptides A-1 (SEQ ID NO 1) and B-2 (SEQ ID NO 6) were 3.3 nM and 1 nM, respectively (data not shown). Preincubation of the GST-peptides with an excess of free PSA inhibited binding to the solid phase PSA. The binding of peptide C-4 (SEQ ID NO 11) to captured PSA was reduced by 50% at a PSA concentration of 0.7 nM.

[2] = molecular target: B5; assay: as above
Procedure: as §1, §2

[3] = molecular target: B2; assay: as above
Procedure: as §1, §2

[4] = molecular target: B1; assay: cell-based or functional assay
[5] = molecular target: B1; assay: cell-based or functional assay; remark: listed apart in the source
[6] = molecular target: B1; assay: GST-peptide IFMA, PSA captured by MAb 5E4, Eu-labelled anti GST tracer
[7] = molecular target: B1; assay: phage display selection on PSA captured by MAb 5E4, 200 µM ZnCl2 in the panning buffer
Procedure: The screening of phage display peptide libraries was performed essentially as described by Koivunen et al. (21). Briefly, each phage library was separately screened with PSA captured on microtiter wells coated with the monoclonal antibody 5E4, which binds both free and complexed PSA (24). 33 nM PSA in TBS buffer containing 10 g/L BSA (BSA-TBS) was incubated in wells coated with MAb 5E4 for 1 h, then the wells were washed to remove unbound PSA. An aliquot of each phage library ([…] infectious particles) was added to the wells, and incubated for 3 h at 22° C. during the first round of panning and for 1 h during subsequent rounds. The phage solution was removed and the wells were washed with TBS containing 0.5% Tween 20. The panning was also performed in the prescence of 200 μM ZnCl2. The bound phage were eluted with 0.1 M glycine buffer, pH 2.2 and neutralized with 1 M Tris base. The eluted phage were amplified by infection of E. coli K91 kan cells, and purified by precipitation with polyethylene glycol. After three rounds of selection and amplification single stranded DNA from individual phage clones was prepared and the peptide sequences were determined by sequencing the relevant part of the viral DNA. Sequencing was performed with an ABI 310 Genetic analyzer and Dye Terminator Cycle Sequencing Core Kit (PE Applied Biosystems, Foster City, Calif., USA) using the oligonucleotide 5′ […] 3′ as a primer.

[8] = molecular target: B1; assay: SPR, PSA captured by MAb H117, 10 µM Zn2+
[9] = molecular target: B1; assay: SPR, PSA captured by MAb H117, 30 µM Zn2+
[10] = molecular target: B1; assay: SPR, PSA captured by MAb H117, 1 µM Zn2+, single fit, 3.4 µM peptide
[11] = molecular target: B1; assay: SPR, PSA captured by MAb H117, 10 µM Zn2+, single fit, 3.4 µM peptide
[12] = molecular target: B1; assay: SPR, PSA captured by MAb H117, 30 µM Zn2+, single fit, 3.4 µM peptide
[13] = molecular target: B1; assay: SPR, PSA captured by MAb H117, 0 µM Zn2+, average of 3 fits (3.4-8.5 µM analyte)
[14] = molecular target: B1; assay: SPR, GST-peptide injected over PSA captured by MAb H117; average of 3 concentrations
[15] = molecular target: B1; assay: SPR, PSA captured by MAb H117, 1 µM Zn2+

Binder: B1
- IC50 [1]: 3.3 nM
- IC50 [2]: 1 nM
- IC50 [3]: 0.7 nM

Binder: CVAYCIEHHCWTC (also: 99mTc chelated between thiol sulfurs of reduced peptide) [Tc99m-labeled C4]
- decrease in PSA enzyme activity (S-2586, A405), 30-fold molar excess of peptide [4]: ~50%

Binder: B2
- 50% stimulation [5]: 0.57 µM
- Maximal binding (CPS) [6]: 790000 CPS

Binder: B3
- binding result [7]: binds

Binder: B4
- binding result [7]: binds

Binder: B5
- minimum peptide concentration affecting the activity [4]: 300 nM
- 50% stimulation [5]: 1.7 µM
- increase (fold) of affinity against 0 µM Zn2+ [8]: 6 fold
- increase (fold) of affinity against 0 µM Zn2+ [9]: 4.7 fold
- Kd [10]: 3100 nM
- koff [10]: 0.0035 s⁻¹
- Kd [11]: 600 nM
- koff [11]: 0.0016 s⁻¹
- kon [11]: 2650 M⁻¹ s⁻¹
- Kd [12]: 800 nM
- koff [12]: 0.0006 s⁻¹
- kon [12]: 830 M⁻¹ s⁻¹
- Maximal binding (CPS) [6]: 428000 CPS
- Kd [13]: 3500 nM
- koff [13]: 0.057 s⁻¹
- kon [13]: 16300 M⁻¹ s⁻¹
- Kd [14]: 3500 nM
- koff [14]: 0.057 s⁻¹
- kon [14]: 16300 M⁻¹ s⁻¹

Binder: B6
- minimum peptide concentration affecting the activity [4]: 300 nM
- 50% stimulation [5]: 2.2 µM
- increase (fold) of affinity against 0 µM Zn2+ [15]: 3 fold
- increase (fold) of affinity against 0 µM Zn2+ [8]: 5.9 fold
- increase (fold) of affinity against 0 µM Zn2+ [9]: 7.7 fold
- Kd [10]: 2600 nM
- koff [10]: 0.0047 s⁻¹
- kon [10]: 1800 M⁻¹ s⁻¹
- Kd [11]: 1400 nM
- koff [11]: 0.0016 s⁻¹
- kon [11]: 1200 M⁻¹ s⁻¹
- Kd [12]: 1000 nM
- koff [12]: 0.002 s⁻¹
- kon [12]: 1900 M⁻¹ s⁻¹
- Maximal binding (CPS) [6]: 219000 CPS
- Kd [13]: 7800 nM
- koff [13]: 0.08 s⁻¹
- kon [13]: 10300 M⁻¹ s⁻¹
- Kd [14]: 7800 nM
- koff [14]: 0.08 s⁻¹
- kon [14]: 10300 M⁻¹ s⁻¹
